# The supplement of paper PMC7877785
# ± gives the uncertainty stated by the source.
# Assay: self-splicing fitness, log relative to wild type (ln ratio); higher = more splicing; Tetrahymena group I intron in knt gene, E. coli kanamycin selection, DiMSum; sequences stand for … in CUCUCU…GGAGGGAAAAGUUAUCAGGCAUGCACCUGGUAGCUAGUCUUUAAACCAAUAGAUUGCAUCGGUUUAAAAGGCAAGACCGUCAAAUUGCGGGAAAGGGGUCAACAGCCGUUCAGUACCAAGUCUCAGGGGAAACUUUGAGAUGGCCUUGCAAAGGGUAUGGUAAUAAGCUGACGGACAUGGUCCUAACCACGCAGCCAAGUCCUAAGUCAACAGAUCUUCUGUUGAUAUGGAUGCAGUUCACAGACUAAAUGUCGGUCGGGGAAGAUGUAUUCUUCUCAUAAGAUAUAGUCGGACCUCUCCUUAAUGGGAGCUAGCGGAUGAAGUGAUGCAACACUGGAGCCGCUGGGAACUAAUUUGUAUGCGAAAGUAUAUUGAUUAGUUUUGGAGUACUCGUGGUCG
# In short: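 The eight P1ex-region nucleotides of an intron in the knt kanamycin-resistance gene on pET-22b(+) were all randomised and the library put into E. coli BL21(DE3). Six replicate transformations were grown overnight at 37°C or 30°C on LB agar with or without 25 μg/mL kanamycin, together with 100 μg/mL carbenicillin, 50 μM IPTG and 0.2% rhamnose. Colonies were pooled and amplicon-sequenced on an Illumina HiSeq 2500. Fitness from DiMSum is the error-weighted combination of wild-type-normalised replicate fold changes, kanamycin over none.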
Sequence,self-splicing fitness (ln) (30 °C),self-splicing fitness (ln) (37 °C)
AAAUAGCAAUAUUACGCCCA,-0.102 ± 0.18,-0.392 ± 0.17
AAAUAGCAAUAUUACGCGGU,-2.71 ± 0.18,-1.93 ± 0.2
AAAUAGCAAUAUUACGCUUA,-1.47 ± 0.11,-0.735 ± 0.13
AAAUAGCAAUAUUACGGAAC,-4.71 ± 0.45,-1.74 ± 0.36
AAAUAGCAAUAUUACGGACC,-1.57 ± 0.25,-1.26 ± 0.31
AAAUAGCAAUAUUACGGAUA,-2.19 ± 0.2,-1.1 ± 0.16
AAAUAGCAAUAUUACGGGCG,-1.29 ± 0.08,-0.403 ± 0.096
AAAUAGCAAUAUUACGGUUU,-1.3 ± 0.059,-0.657 ± 0.076
AAAUAGCAAUAUUACGUCAC,-4.4 ± 0.42,-2.53 ± 0.28
AAAUAGCAAUAUUACGUCGC,-2.54 ± 0.15,-2.54 ± 0.28
AAAUAGCAAUAUUACGUGCG,-0.841 ± 0.13,-0.149 ± 0.15
AAAUAGCAAUAUUACGUGUG,-2.05 ± 0.09,-1.55 ± 0.086
AAAUAGCAAUAUUACGUUAU,-3.39 ± 0.18,-2 ± 0.15
AACAAGCAAUAUUACGAACU,-0.328 ± 0.052,0.146 ± 0.084
AACAAGCAAUAUUACGAAUG,-3 ± 0.14,-1.97 ± 0.12
AACAAGCAAUAUUACGCGCA,-0.604 ± 0.066,0.104 ± 0.094
AACAAGCAAUAUUACGCGGA,-2.07 ± 0.099,-0.961 ± 0.078
AACAAGCAAUAUUACGCUCG,-0.882 ± 0.11,-0.282 ± 0.11
AACAAGCAAUAUUACGCUCU,-0.638 ± 0.075,0.0475 ± 0.089
AACAAGCAAUAUUACGCUGC,-3.38 ± 0.3,-2.45 ± 0.28
AACAAGCAAUAUUACGCUGU,-3.38 ± 0.12,-2.32 ± 0.13
AACAAGCAAUAUUACGGAAU,-2.64 ± 0.13,-1.75 ± 0.14
AACAAGCAAUAUUACGGAGC,-4.22 ± 0.3,-3.65 ± 0.36
AACAAGCAAUAUUACGGGAA,-1.57 ± 0.097,-1.86 ± 0.13
AACAAGCAAUAUUACGGGAU,-2.27 ± 0.098,-1.01 ± 0.1

Sequence,self-splicing fitness (ln) (30 °C),self-splicing fitness (ln) (37 °C)
AACAAGCAAUAUUACGGUAG,-3.81 ± 0.2,-2.22 ± 0.13
AACAAGCAAUAUUACGGUGC,-3.67 ± 0.16,-2.04 ± 0.12
AACAAGCAAUAUUACGUACA,-1.04 ± 0.095,-0.329 ± 0.11
AACAAGCAAUAUUACGUACU,-0.11 ± 0.05,0.496 ± 0.071
AACAAGCAAUAUUACGUAUA,-2.4 ± 0.13,-1.59 ± 0.12
AACAAGCAAUAUUACGUAUC,-4.08 ± 0.15,-2.01 ± 0.11
AACAAGCAAUAUUACGUCUG,-1.22 ± 0.058,-0.709 ± 0.076
AACAAGCAAUAUUACGUGUC,-4.91 ± 0.21,-2.96 ± 0.095
AACAAGCAAUAUUACGUUCC,-3.85 ± 0.36,-0.835 ± 0.2
AACCAGCAAUAUUACGAAGA,-2.02 ± 0.081,-0.639 ± 0.082
AACCAGCAAUAUUACGCACU,0.473 ± 0.074,0.0602 ± 0.078
AACCAGCAAUAUUACGCCCU,0.309 ± 0.089,-0.381 ± 0.13
AACCAGCAAUAUUACGCCGG,-3.39 ± 0.17,-2.09 ± 0.17
AACCAGCAAUAUUACGCGUU,-3.77 ± 0.15,-1.56 ± 0.15
AACCAGCAAUAUUACGCUUA,-0.415 ± 0.046,-0.0597 ± 0.055
AACCAGCAAUAUUACGGAGC,-2.17 ± 0.12,-1.49 ± 0.13
AACCAGCAAUAUUACGGAUC,-2.84 ± 0.11,-1.48 ± 0.1
AACCAGCAAUAUUACGGCAA,-0.217 ± 0.07,-0.0314 ± 0.082
AACCAGCAAUAUUACGGCCG,0.0592 ± 0.073,-0.223 ± 0.1
AACCAGCAAUAUUACGGGAU,-2.59 ± 0.097,-1.6 ± 0.098
AACCAGCAAUAUUACGGUGG,-2.33 ± 0.086,-1.44 ± 0.1
AACCAGCAAUAUUACGUACU,0.015 ± 0.053,0.248 ± 0.066
AACCAGCAAUAUUACGUAGA,-1.75 ± 0.044,-0.514 ± 0.058
AACCAGCAAUAUUACGUCAA,-1.38 ± 0.062,-1.06 ± 0.074
AACCAGCAAUAUUACGUCUA,-0.091 ± 0.062,-0.6 ± 0.067

Sequence,self-splicing fitness (ln) (30 °C),self-splicing fitness (ln) (37 °C)
AACGAGCAAUAUUACGAAAU,-3.74 ± 0.29,-2.26 ± 0.21
AACGAGCAAUAUUACGACAA,-2.78 ± 0.24,-0.872 ± 0.18
AACGAGCAAUAUUACGACUC,-1.14 ± 0.064,-0.414 ± 0.081
AACGAGCAAUAUUACGCAAC,-2.01 ± 0.21,-1.94 ± 0.44
AACGAGCAAUAUUACGCAAG,-3.43 ± 0.19,-2.19 ± 0.19
AACGAGCAAUAUUACGCACC,-2.32 ± 0.42,-1.65 ± 0.35
AACGAGCAAUAUUACGCCGC,-2.6 ± 0.24,-3.58 ± 0.39
AACGAGCAAUAUUACGCCGU,-3.6 ± 0.18,-1.88 ± 0.16
AACGAGCAAUAUUACGCGAA,-4 ± 0.29,-2.96 ± 0.28
AACGAGCAAUAUUACGCGAC,-2.91 ± 0.21,-2.03 ± 0.27
AACGAGCAAUAUUACGCUAA,-3.19 ± 0.35,-2.33 ± 0.16
AACGAGCAAUAUUACGCUAU,-3.9 ± 0.24,-2.18 ± 0.23
AACGAGCAAUAUUACGGAAG,-2.67 ± 0.16,-2.45 ± 0.28
AACGAGCAAUAUUACGGAGC,-3.72 ± 0.19,-2.05 ± 0.15
AACGAGCAAUAUUACGGCAC,-2.99 ± 0.22,-1.89 ± 0.29
AACGAGCAAUAUUACGGGGA,-2.72 ± 0.21,-3.6 ± 0.34
AACGAGCAAUAUUACGGGUU,-2.17 ± 0.18,-2.05 ± 0.22
AACGAGCAAUAUUACGGUGA,-3.07 ± 0.33,-1.99 ± 0.31
AACGAGCAAUAUUACGUAAU,-3.78 ± 0.15,-1.75 ± 0.12
AACGAGCAAUAUUACGUAGU,-3.97 ± 0.15,-2.24 ± 0.15
AACGAGCAAUAUUACGUAUA,-2.83 ± 0.19,-2.34 ± 0.27
AACGAGCAAUAUUACGUCGC,-2.69 ± 0.36,1.3 ± 0.3
AACGAGCAAUAUUACGUCUU,-1.33 ± 0.074,-0.279 ± 0.093
AACGAGCAAUAUUACGUGCG,-2.23 ± 0.11,-1.92 ± 0.15
